Data published in publication PMC7797058, “Characterization of the first tetrameric transcription factor of the GntR superfamily with allosteric regulation from the bacterial pathogen Agrobacterium fabrum” (Nucleic Acids Research, 2020).

What was measured:
[1] = biological target: T1, Atu1419 (Agrobacterium fabrum C58) (UniProt A9CJ36); experiment: EMSA; conditions: EMSA: 50 mM Tris-HCl pH 8, 150 mM NaCl, 30 nM DNA, 30 min at room temperature; gel 6% or 12% PAGE in TBE at 4 C
T1 sequence: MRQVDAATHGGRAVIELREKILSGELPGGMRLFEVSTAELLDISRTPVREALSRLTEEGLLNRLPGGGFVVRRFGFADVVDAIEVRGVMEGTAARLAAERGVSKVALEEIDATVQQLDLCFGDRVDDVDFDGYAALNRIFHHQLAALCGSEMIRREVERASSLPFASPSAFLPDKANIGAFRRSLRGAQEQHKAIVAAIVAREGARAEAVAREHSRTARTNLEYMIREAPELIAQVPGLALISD

Atu1419 [2] = biological target: T2, Atu1419 (Agrobacterium fabrum, UniProt A9CJ36); experiment: differential scanning calorimetry; assay type: binding; conditions: 10 µM protein, 100 µM MEF, 1 K/min; absolute Tm with ligand, apo reference Tm 52.6 °C
T2 construct: theoretical monomer mass ~26542 Da; homotetramer; co-purified Zn2+
T2 sequence (A9CJ36 1-244): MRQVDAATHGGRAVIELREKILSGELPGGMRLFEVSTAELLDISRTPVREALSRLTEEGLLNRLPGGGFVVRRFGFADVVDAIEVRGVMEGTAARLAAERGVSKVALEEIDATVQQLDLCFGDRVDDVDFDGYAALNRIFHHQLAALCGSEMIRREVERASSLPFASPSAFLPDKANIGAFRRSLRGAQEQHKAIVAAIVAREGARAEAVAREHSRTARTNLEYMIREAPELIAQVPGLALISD

Atu1419 [3] = biological target: T2, Atu1419; experiment: isothermal titration calorimetry; assay type: binding
[4] = biological target: the molecule itself; experiment: SEC + SEC-MALS; apo Atu1419 at 25 uM; Superdex 200 10/300 GL; 50 mM Tris pH 8, 150 mM NaCl
[5] = biological target: the molecule itself; experiment: not stated; oligomeric state of purified Atu1419-H3A; method not given
Atu1419 [6] = biological target: T3, Atu1419 (Agrobacterium fabrum C58, UniProt A9CJ36 1-244); experiment: X-ray crystallography; Zn2+, citrate (orientation B); EMSA: 50 mM Tris-HCl pH 8, 150 mM NaCl, 30 nM DNA, 30 min at room temperature; gel 6% or 12% PAGE in TBE at 4 C; conditions: protein: recombinant; tags: C-terminal 6xHis; chain copies: 4; blunt; self-complementary, 2 strand copies
T3 sequence: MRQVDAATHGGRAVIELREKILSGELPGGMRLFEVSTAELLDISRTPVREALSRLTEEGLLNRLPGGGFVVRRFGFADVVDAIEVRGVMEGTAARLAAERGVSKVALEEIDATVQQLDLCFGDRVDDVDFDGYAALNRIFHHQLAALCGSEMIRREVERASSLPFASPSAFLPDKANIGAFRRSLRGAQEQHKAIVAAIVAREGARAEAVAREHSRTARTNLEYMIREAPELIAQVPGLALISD

Molecule: AAGCGCCTGAACTGATTGCGCAGGTTCCGGGTCTCGCACTCATCAGCGACTAAGCGGCGGAAATCGCTGCAAATCCAGGGGTGGCGCCTTTTGGCGCCGCCTTTATTTTTGTCGACACCCTCCCTGACGCGGTAATTTTGCGCTTGCAATTTATCAAAGCACAGCGTTTCATGTATACATAGATGCGATTGCCAGGGAGGAGATGACAATGGCAAATTCCAGTCTGACCGAGGTTTTGAAGCAATATCCGAACCCCGTTGAAATGCTC (double strand) [Patu1420]
- binding [1]: binds

Molecule: GGTGGGACTGGTCAAACAACACGGCACCCTCGCGCCATGCGGCCTGCTCGGAACGCCAGTTGCTGAACTCACCGGCGACAACCGGGTATACATACATTCCGATTTTTGAGTTGCGGAGCATTTCAACGGGGTTCGGATATTGCTTCAAAACCTCGGTCAGACTGGAATTTGCCATTGTCATCTCCTCCCT (double strand) [P2-atu1420]
- binding [1]: binds

Molecule: Nc1nc2c(c(=O)[nH]1)N1CN(c3ccc(C(=O)N[C@@H](CCC(=O)O)C(=O)O)cc3)C[C@H]1CN2 [MEF, N5,N10-methylenetetrahydrofolate]
- Tm (Atu1419 [2]): 63.5 °C
- Kd (Atu1419 [3]): ~20 µM

B1: Atu1419 transcriptional regulator (GntR superfamily, VanR group) of Agrobacterium fabrum (natural protein, UniProt A9CJ36 1-244, looked up)
chain: MRQVDAATHGGRAVIELREKILSGELPGGMRLFEVSTAELLDISRTPVREALSRLTEEGLLNRLPGGGFVVRRFGFADVVDAIEVRGVMEGTAARLAAERGVSKVALEEIDATVQQLDLCFGDRVDDVDFDGYAALNRIFHHQLAALCGSEMIRREVERASSLPFASPSAFLPDKANIGAFRRSLRGAQEQHKAIVAAIVAREGARAEAVAREHSRTARTNLEYMIREAPELIAQVPGLALISD
notes: Atu1419, GntR-type transcriptional repressor of the SpG8-1b region, Agrobacterium fabrum C58; theoretical molecular weight about 26 542 Da for a monomer; Co-purifies with one Zn2+ ion per subunit; also called apo Atu1419; wild-type Atu1419; source: E. coli BL21, pET-20b, purified (His-Trap HP, Superdex 200 gel filtration)
- stoichiometry N [4]: 4

B2: Atu1419-H3A mutant (H192A, H141A and H214A) (natural protein)
chain: MRQVDAATHGGRAVIELREKILSGELPGGMRLFEVSTAELLDISRTPVREALSRLTEEGLLNRLPGGGFVVRRFGFADVVDAIEVRGVMEGTAARLAAERGVSKVALEEIDATVQQLDLCFGDRVDDVDFDGYAALNRIFAHQLAALCGSEMIRREVERASSLPFASPSAFLPDKANIGAFRRSLRGAQEQAKAIVAAIVAREGARAEAVAREASRTARTNLEYMIREAPELIAQVPGLALISD
notes: The PDB entries are of the wild-type parent; the mutant could not be crystallised; also called triple point mutant; source: E. coli BL21, synthetic gene (Genscript) in pET-20b, expressed and purified as the wild-type protein
- stoichiometry N [5]: 4

B3: 10-mer palindrome (dsDNA)
DNA 1: ATGTATACAT
DNA 2: ATGTATACAT
- binding result (Atu1419 [6]): binds
